Data from paper PMC6347577 (Journal of the American Chemical Society, 2018).

Molecular target: the molecule itself
Assay: native MS

B1: hepatitis B virus (HBV) capsid protein Cp149 (truncated form containing only the assembly domain), dimer (domain or fragment)
chain: MDIDPYKEFGATVELLSFLPSDFFPSVRDLLDTAAALYRDALESPEHCSPHHTALRQAILCWGDLMTLATWVGTNLEDPASRDLVVSYVNTNVGLKFRQLLWFHISCLTFGRETVLEYLVSFGVWIRTPPAYRPPNAPILSTLPETTVV
stoichiometry N: ~90 dimers
